The supplement of paper PMC9732359
± gives the uncertainty stated by the source.

Assay: protein stability index of a GFP-peptide fusion (yeast GPS) (PSI 1-4); higher = more stable; sorted into four equal gates, so the index is relative within each strain
Summary of the method: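 Tiled 17-residue peptides from yeast proteins were fused downstream of GFP on a plasmid that also expresses Cherry, and the pooled library was carried in yeast. Mid-log cultures grown in leucine-free medium were sorted into four equal gates by GFP/Cherry fluorescence ratio. Plasmids from each gate were PCR-amplified and Illumina-sequenced, and reads were assigned to strains by barcodes. Each peptide's protein stability index is the sum, over gates, of the gate's read frequency multiplied by its gate number.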

Sequence | protein stability index (doa10∆) | protein stability index (pdr5∆) | protein stability index (ubr1∆) | protein stability index (san1∆)
FPKTTVAALRFTAGARA [RPL18A] | 1.58 ± 0.15 | 1.47 ± 0.085 | 1.5 ± 0.12 | 
QHIKVFKLDKDTSNWEL [YGL100W/SEH1] | 3.43 ± 0.15 | 3.15 ± 0.12 | 3.62 ± 0.29 | 3.2 ± 0.16
NDLRDMILNYNPSQGVS [UBP6] | 2.21 ± 0.072 | 3.23 ± 0.12 | 3.18 ± 0.064 | 3.16 ± 0.077
DDSFFNETNDKKRNPSK [PRP28] | 3.16 ± 0.098 | 2.96 ± 0.1 | 2.85 ± 0.084 | 3.13 ± 0.072
AQPSVQSSFAGTWSAKE [FAS2] | 2.74 ± 0.21 | 3.13 ± 0.14 | 3.09 ± 0.087 | 3.35 ± 0.076
KQERLKENEESLTPTQS [PRP28] | 3.13 ± 0.092 | 3.4 ± 0.07 | 3.15 ± 0.074 | 3.22 ± 0.12
PNNASSHISASASPHLA [SNF2] | 2.53 ± 0.046 | 2.66 ± 0.044 | 2.88 ± 0.039 | 2.51 ± 0.069
SRMTVGKMIELISGKAG [RET1] | 3.14 ± 0.17 | 2.98 ± 0.15 | 3.12 ± 0.13 | 3.05 ± 0.094
LMEASDAFRVHICGICG [RPB2] | 2.08 ± 0.062 | 1.83 ± 0.098 | 2.5 ± 0.072 | 2.23 ± 0.11
KSAENIIKMTIPYAAKL [RET1] | 2.27 ± 0.1 | 2.48 ± 0.11 | 2.32 ± 0.09 | 2.89 ± 0.15
SAINQYNRRQDKKNKRL [SNF2] | 3.13 ± 0.083 | 3.34 ± 0.082 | 3.25 ± 0.087 | 3.23 ± 0.074
AQFLRSVVHPGEMVGVL [RPO21] | 2.23 ± 0.081 | 1.93 ± 0.08 | 1.49 ± 0.054 | 2.3 ± 0.1
GTGLQSYLEERERQVNE [RPC53] | 3.17 ± 0.16 | 3.24 ± 0.12 | 3.25 ± 0.13 | 3.14 ± 0.11
ILYYDVLFITPDIVGHE [BRR2] | 2.29 ± 0.058 | 2.49 ± 0.052 | 2.84 ± 0.057 | 2.61 ± 0.053
RQMKDVNAPLPTPFKVD [RPN2] | 3.07 ± 0.079 | 3.04 ± 0.066 | 2.86 ± 0.053 | 2.79 ± 0.064
MGLGKTLQTISFLGYLR [ISW2] | 2.45 ± 0.044 | 2.06 ± 0.054 | 2.13 ± 0.056 | 1.67 ± 0.087
LNSYHIKNGRIYFTVPN [RGR1] | 2.57 ± 0.054 | 2.21 ± 0.035 | 2.33 ± 0.037 | 2.19 ± 0.056
IGLPRHSLAYLLENFAN [RRP6] | 1.67 ± 0.04 | 1.78 ± 0.041 | 1.87 ± 0.025 | 1.64 ± 0.072
ALIDAGISMFDYISGIS [SKI6] | 1.48 ± 0.064 | 1.5 ± 0.046 | 1.68 ± 0.037 | 2.3 ± 0.099
STPENVPRLFDLVKPKN [SMC4] | 2.65 ± 0.077 | 3.11 ± 0.087 | 2.81 ± 0.053 | 2.65 ± 0.12
AENMLEELRGQQTEHET [SMC4] | 3.02 ± 0.13 | 2.97 ± 0.2 | 3.4 ± 0.1 | 3.32 ± 0.069
MAMNITPRLYTDRSRDF [RPB2] | 2.93 ± 0.089 | 3 ± 0.087 | 3.2 ± 0.087 | 2.96 ± 0.096

Sequence | protein stability index (doa10∆) | protein stability index (pdr5∆) | protein stability index (ubr1∆) | protein stability index (san1∆)
PAVKQWDLLPEPIRFLP [SWI1] | 2.28 ± 0.058 | 2.27 ± 0.069 | 2.53 ± 0.072 | 2.33 ± 0.055
NTSFSFTKPPANETDKR [YOR098C/NUP1] | 3.08 ± 0.075 | 3.11 ± 0.049 | 3.15 ± 0.045 | 3.07 ± 0.046
KGGIIASVGDILKTLER [YML031W/NDC1] | 2.99 ± 0.11 | 2.93 ± 0.09 | 2.87 ± 0.13 | 3.32 ± 0.092
KSRGSDLQYLGEFSGKN [RRP6] | 3.13 ± 0.088 | 3.34 ± 0.11 | 3.31 ± 0.073 | 3.45 ± 0.082
DNLLLNLEQINEDLEDG [REC8] | 2.81 ± 0.056 | 2.67 ± 0.066 | 3.07 ± 0.061 | 2.71 ± 0.08
NENSNCLLSIPKSTKGK [YML103C/NUP188] | 2.04 ± 0.05 | 1.99 ± 0.044 | 2.35 ± 0.043 | 2.61 ± 0.05
SLMSSQNKLFYITNADD [SIR3] | 2.77 ± 0.15 | 2.02 ± 0.12 | 1.49 ± 0.095 | 3.07 ± 0.16
HEAYSIIEKITDQILQL [RRP45] | 2.55 ± 0.22 | 2.31 ± 0.2 |  | 
TNTHPNFLSKIRNINVQ [SNF2] | 1.44 ± 0.049 | 1.68 ± 0.063 | 1.34 ± 0.031 | 1.49 ± 0.09
ATESIKNRRRIHGELKT [SMC1] | 2.83 ± 0.17 | 3.09 ± 0.12 | 2.61 ± 0.14 | 2.28 ± 0.26
NRAMEYDALLSINVHSN [RET1] | 2.58 ± 0.061 | 2.41 ± 0.064 | 2.68 ± 0.045 | 2.29 ± 0.07
QHQEEPLLSLDVTPISM [RPN4] | 2.77 ± 0.2 | 2.97 ± 0.16 | 2.65 ± 0.23 | 3.07 ± 0.086
SSIDKKSSILTVLQKNS [YML103C/NUP188] | 1.79 ± 0.063 | 2.42 ± 0.083 | 2.46 ± 0.058 | 2.4 ± 0.067
NVFHGLCAGANNPKIQT [IRR1] | 1.59 ± 0.062 | 1.97 ± 0.077 | 1.56 ± 0.073 | 1.48 ± 0.086
ETQEIKENDTVMNTKLL [ESC2] | 2.85 ± 0.086 | 3 ± 0.063 | 3.18 ± 0.055 | 2.88 ± 0.1
INSDNQNIILRSTMMKF [RPN3] | 2.82 ± 0.092 | 2.81 ± 0.086 | 2.9 ± 0.059 | 2.77 ± 0.11
SSASPSALTSPTDSSKI [SIR3] | 2.71 ± 0.048 | 3.08 ± 0.055 | 2.72 ± 0.033 | 2.87 ± 0.045
KDAEDETSSDGSKSDGS [RPN1] | 3.38 ± 0.051 | 3.41 ± 0.054 | 3.29 ± 0.035 | 3.64 ± 0.047
NGNLTSNQLISNYAASN [SWI1] | 3.13 ± 0.12 | 2.89 ± 0.1 | 3.1 ± 0.055 | 2.98 ± 0.11
NLKQANNVAYGKKRFRV [SMC4] | 2.41 ± 0.11 | 2.62 ± 0.077 | 2.31 ± 0.054 | 2.09 ± 0.095
LDTLPSEFDSRVKAMEV [RPT5] | 2.93 ± 0.085 | 3.11 ± 0.098 | 3.36 ± 0.1 | 3.2 ± 0.068
HTLDIINVLTDQNPIQV [RPS5] | 1.88 ± 0.066 | 2.33 ± 0.077 | 1.86 ± 0.055 | 2.12 ± 0.096
